Assay results published in patent EP4803539A2.

Legend:
[1] = biological target: antigen of the 'Antigen binding ELISA' (not given); assay: Antigen binding ELISA of stability sample; F0; 25 °C 1 month
[2] = biological target: antigen of the 'Antigen binding ELISA' (not given); assay: Antigen binding ELISA of stability sample; F0; 25 °C 2 months
[3] = biological target: antigen of the 'Antigen binding ELISA' (not given); assay: Antigen binding ELISA of stability sample; F15; 25 °C 1 month
[4] = biological target: antigen of the 'Antigen binding ELISA' (not given); assay: Antigen binding ELISA of stability sample; F18; 25 °C 1 month
[5] = biological target: antigen of the 'Antigen binding ELISA' (not given); assay: Antigen binding ELISA of stability sample; F15; 25 °C 2 months
[6] = biological target: antigen of the 'Antigen binding ELISA' (not given); assay: Antigen binding ELISA of stability sample; F18; 25 °C 2 months
[7] = biological target: antigen of the 'Antigen binding ELISA' (not given); assay: Antigen binding ELISA of stressed sample; F15; 25 °C dark 7 days
[8] = biological target: antigen of the 'Antigen binding ELISA' (not given); assay: Antigen binding ELISA of stressed sample; F18; 25 °C dark 7 days
[9] = biological target: antigen of the 'Antigen binding ELISA' (not given); assay: Antigen binding ELISA of stressed sample; F15; 25 °C 1000 lx 7 days
[10] = biological target: antigen of the 'Antigen binding ELISA' (not given); assay: Antigen binding ELISA of stressed sample; F15; 3 freeze-thaw cycles
[11] = biological target: antigen of the 'Antigen binding ELISA' (not given); assay: Antigen binding ELISA of stressed sample; F18; 25 °C 1000 lx 7 days
[12] = biological target: antigen of the 'Antigen binding ELISA' (not given); assay: Antigen binding ELISA of stressed sample; F18; 3 freeze-thaw cycles
[13] = biological target: antigen of the 'Antigen binding ELISA' (not given); assay: Antigen binding ELISA of stability sample; F15 without methionine; initial
[14] = biological target: antigen of the 'Antigen binding ELISA' (not given); assay: Antigen binding ELISA of stability sample; F18 with 10 mM methionine; initial
[15] = biological target: antigen of the 'Antigen binding ELISA' (not given); assay: Antigen binding ELISA of stability sample; F18 with methionine; 5 °C 2 months
[16] = biological target: antigen of the 'Antigen binding ELISA' (not given); assay: Antigen binding ELISA of stability sample; F0; initial (repeated from Table 37)
[17] = biological target: antigen of the 'Antigen binding ELISA' (not given); assay: Antigen binding ELISA of stressed sample; F15; initial (repeated from Table 37)
[18] = biological target: antigen of the 'Antigen binding ELISA' (not given); assay: Antigen binding ELISA of stressed sample; F18; initial (repeated from Table 41A)
[19] = biological target: antigen of the 'Antigen binding ELISA' (not given); assay: Antigen binding ELISA of stability sample; F0; 5 °C 2 months (same value as Table 37)
[20] = biological target: antigen of the 'Antigen binding ELISA' (not given); assay: Antigen binding ELISA of stability sample; F18 with methionine; initial (repeated from Table 41A)
[21] = biological target: antigen of the 'Antigen binding ELISA' (not given); assay: Antigen binding ELISA of stability sample; F15 without methionine; initial (same value as Table 37)
[22] = biological target: antigen of the 'Antigen binding ELISA' (not given); assay: Antigen binding ELISA of stability sample; F15 without methionine; 5 °C 2 months (same value as Table 37)

ELISA (Antigen binding ELISA), report result [1]: 103% | ELISA (Antigen binding ELISA), report result [2]: 91.8% | ELISA (Antigen binding ELISA), report result [3]: 104% | ELISA (Antigen binding ELISA), report result [4]: 97% | ELISA (Antigen binding ELISA), report result [5]: 96.9% | ELISA (Antigen binding ELISA), report result [6]: 97.8% | ELISA (Antigen binding ELISA), report result [7]: 107% | ELISA (Antigen binding ELISA), report result [8]: 105% | ELISA (Antigen binding ELISA), report result [9]: 101% | ELISA (Antigen binding ELISA), report result [10]: 108% | ELISA (Antigen binding ELISA), report result [11]: 109% | ELISA (Antigen binding ELISA), report result [12]: 106% | ELISA (Antigen binding ELISA), report result [13]: 102% | ELISA (Antigen binding ELISA), report result [14]: 108% | ELISA (Antigen binding ELISA), report result [15]: 118% | ELISA (Antigen binding ELISA), report result [16]: 101% | ELISA (Antigen binding ELISA), report result [17]: 102% | ELISA (Antigen binding ELISA), report result [18]: 108% | ELISA (Antigen binding ELISA), report result [19]: 103% | ELISA (Antigen binding ELISA), report result [20]: 108% | ELISA (Antigen binding ELISA), report result [21]: 102% | ELISA (Antigen binding ELISA), report result [22]: 123%
Substance: BAN2401 (antibody)
